Test results published in the Human Domainome abundance scans (Beltran et al. 2025).
± gives the uncertainty stated by the source.

Test: abundance fitness (aPCA) (normalised: wild type 0, dead -1); higher = more abundant; growth selection in yeast, the domain comes from the species named
Conditions: Homo sapiens
With “E3 ubiquitin-protein ligase NEDD4-like Q220T, Q96PU5” the abundance fitness was 0.163 ± 0.077.
Work on “E3 ubiquitin-protein ligase NEDD4-like Q220V, Q96PU5” yielded an abundance fitness of -0.242 ± 0.06.
In the case of “E3 ubiquitin-protein ligase NEDD4-like Q220Y, Q96PU5”, the abundance fitness is reported as -0.692 ± 0.096.
In the case of “E3 ubiquitin-protein ligase NEDD4-like R208A, Q96PU5”, the abundance fitness is reported as 0.036 ± 0.062.
Substance “E3 ubiquitin-protein ligase NEDD4-like R208C, Q96PU5” has an abundance fitness of 0.06 ± 0.062.
For “E3 ubiquitin-protein ligase NEDD4-like R208D, Q96PU5”, the abundance fitness was 0.067 ± 0.098.
“E3 ubiquitin-protein ligase NEDD4-like R208E, Q96PU5” showed an abundance fitness of 0.047 ± 0.083.
For “E3 ubiquitin-protein ligase NEDD4-like R208F, Q96PU5”, the abundance fitness was -0.289 ± 0.06.
With “E3 ubiquitin-protein ligase NEDD4-like R208G, Q96PU5” the abundance fitness was -0.191 ± 0.06.
Work on “E3 ubiquitin-protein ligase NEDD4-like R208I, Q96PU5” yielded an abundance fitness of -0.504 ± 0.12.
With “E3 ubiquitin-protein ligase NEDD4-like R208K, Q96PU5” the abundance fitness was -0.028 ± 0.079.
“E3 ubiquitin-protein ligase NEDD4-like R208L, Q96PU5” showed an abundance fitness of -0.128 ± 0.069.
With “E3 ubiquitin-protein ligase NEDD4-like R208M, Q96PU5” the abundance fitness was -0.062 ± 0.078.
In the case of “E3 ubiquitin-protein ligase NEDD4-like R208N, Q96PU5”, the abundance fitness is reported as 0.225 ± 0.11.
Substance “E3 ubiquitin-protein ligase NEDD4-like R208P, Q96PU5” has an abundance fitness of -0.908 ± 0.099.
With “E3 ubiquitin-protein ligase NEDD4-like R208Q, Q96PU5” the abundance fitness was 0.215 ± 0.09.
For “E3 ubiquitin-protein ligase NEDD4-like R208T, Q96PU5”, the abundance fitness was -0.005 ± 0.08.
Work on “E3 ubiquitin-protein ligase NEDD4-like R208W, Q96PU5” yielded an abundance fitness of -0.408 ± 0.083.
“E3 ubiquitin-protein ligase NEDD4-like R208Y, Q96PU5” gave an abundance fitness of -0.23 ± 0.11.
“E3 ubiquitin-protein ligase NEDD4-like R217A, Q96PU5” gave an abundance fitness of 0 ± 0.064.
“E3 ubiquitin-protein ligase NEDD4-like R217C, Q96PU5” gave an abundance fitness of -0.105 ± 0.081.
With “E3 ubiquitin-protein ligase NEDD4-like R217D, Q96PU5” the abundance fitness was -0.042 ± 0.078.
In the case of “E3 ubiquitin-protein ligase NEDD4-like R217E, Q96PU5”, the abundance fitness is reported as -0.153 ± 0.085.
With “E3 ubiquitin-protein ligase NEDD4-like R217F, Q96PU5” the abundance fitness was -0.011 ± 0.088.
In the case of “E3 ubiquitin-protein ligase NEDD4-like R217G, Q96PU5”, the abundance fitness is reported as -0.005 ± 0.054.
Substance “E3 ubiquitin-protein ligase NEDD4-like R217H, Q96PU5” has an abundance fitness of -1 ± 0.062.
In the case of “E3 ubiquitin-protein ligase NEDD4-like R217I, Q96PU5”, the abundance fitness is reported as -0.267 ± 0.084.
“E3 ubiquitin-protein ligase NEDD4-like R217K, Q96PU5” showed an abundance fitness of 0.087 ± 0.091.
Work on “E3 ubiquitin-protein ligase NEDD4-like R217L, Q96PU5” yielded an abundance fitness of -0.208 ± 0.06.
For “E3 ubiquitin-protein ligase NEDD4-like R217M, Q96PU5”, the abundance fitness was -0.239 ± 0.07.
In the case of “E3 ubiquitin-protein ligase NEDD4-like R217N, Q96PU5”, the abundance fitness is reported as 0.051 ± 0.089.
Work on “E3 ubiquitin-protein ligase NEDD4-like R217P, Q96PU5” yielded an abundance fitness of -0.267 ± 0.085.
Substance “E3 ubiquitin-protein ligase NEDD4-like R217Q, Q96PU5” has an abundance fitness of -0.016 ± 0.067.
Substance “E3 ubiquitin-protein ligase NEDD4-like R217T, Q96PU5” has an abundance fitness of -0.069 ± 0.081.
In the case of “E3 ubiquitin-protein ligase NEDD4-like R217Y, Q96PU5”, the abundance fitness is reported as -0.179 ± 0.084.
For “E3 ubiquitin-protein ligase NEDD4-like R223A, Q96PU5”, the abundance fitness was -0.175 ± 0.066.
In the case of “E3 ubiquitin-protein ligase NEDD4-like R223C, Q96PU5”, the abundance fitness is reported as -0.552 ± 0.09.
Work on “E3 ubiquitin-protein ligase NEDD4-like R223D, Q96PU5” yielded an abundance fitness of -0.481 ± 0.098.
“E3 ubiquitin-protein ligase NEDD4-like R223E, Q96PU5” gave an abundance fitness of -0.378 ± 0.087.
For “E3 ubiquitin-protein ligase NEDD4-like R223F, Q96PU5”, the abundance fitness was -0.461 ± 0.12.
Work on “E3 ubiquitin-protein ligase NEDD4-like R223G, Q96PU5” yielded an abundance fitness of -0.696 ± 0.068.
“E3 ubiquitin-protein ligase NEDD4-like R223H, Q96PU5” showed an abundance fitness of -0.18 ± 0.13.
For “E3 ubiquitin-protein ligase NEDD4-like R223K, Q96PU5”, the abundance fitness was 0.013 ± 0.1.
“E3 ubiquitin-protein ligase NEDD4-like R223L, Q96PU5” gave an abundance fitness of -0.206 ± 0.053.
With “E3 ubiquitin-protein ligase NEDD4-like R223M, Q96PU5” the abundance fitness was -0.28 ± 0.067.
Substance “E3 ubiquitin-protein ligase NEDD4-like R223N, Q96PU5” has an abundance fitness of -0.082 ± 0.088.
Substance “E3 ubiquitin-protein ligase NEDD4-like R223P, Q96PU5” has an abundance fitness of -0.145 ± 0.11.
Substance “E3 ubiquitin-protein ligase NEDD4-like R223Q, Q96PU5” has an abundance fitness of -0.153 ± 0.082.
Substance “E3 ubiquitin-protein ligase NEDD4-like R223S, Q96PU5” has an abundance fitness of -0.154 ± 0.061.
Substance “E3 ubiquitin-protein ligase NEDD4-like R223T, Q96PU5” has an abundance fitness of -0.393 ± 0.094.
For “E3 ubiquitin-protein ligase NEDD4-like R223V, Q96PU5”, the abundance fitness was -0.249 ± 0.064.
For “E3 ubiquitin-protein ligase NEDD4-like R223Y, Q96PU5”, the abundance fitness was -0.41 ± 0.1.
“E3 ubiquitin-protein ligase NEDD4-like S184A, Q96PU5” showed an abundance fitness of -0.461 ± 0.096.
“E3 ubiquitin-protein ligase NEDD4-like S184C, Q96PU5” gave an abundance fitness of -0.457 ± 0.1.
Work on “E3 ubiquitin-protein ligase NEDD4-like S184E, Q96PU5” yielded an abundance fitness of -0.507 ± 0.49.
“E3 ubiquitin-protein ligase NEDD4-like S184F, Q96PU5” gave an abundance fitness of 0.13 ± 0.084.
“E3 ubiquitin-protein ligase NEDD4-like S184G, Q96PU5” gave an abundance fitness of -0.476 ± 0.11.
“E3 ubiquitin-protein ligase NEDD4-like S184H, Q96PU5” gave an abundance fitness of -0.437 ± 0.15.
For “E3 ubiquitin-protein ligase NEDD4-like S184L, Q96PU5”, the abundance fitness was -0.599 ± 0.14.
For “E3 ubiquitin-protein ligase NEDD4-like S184M, Q96PU5”, the abundance fitness was 0.884 ± 0.2.
Substance “E3 ubiquitin-protein ligase NEDD4-like S184N, Q96PU5” has an abundance fitness of -0.554 ± 0.4.
Work on “E3 ubiquitin-protein ligase NEDD4-like S184P, Q96PU5” yielded an abundance fitness of -0.682 ± 0.26.
“E3 ubiquitin-protein ligase NEDD4-like S184R, Q96PU5” gave an abundance fitness of -1.23 ± 0.22.
“E3 ubiquitin-protein ligase NEDD4-like S184V, Q96PU5” showed an abundance fitness of -0.505 ± 0.13.
Substance “E3 ubiquitin-protein ligase NEDD4-like S184W, Q96PU5” has an abundance fitness of -1.33 ± 0.15.
In the case of “E3 ubiquitin-protein ligase NEDD4-like S184Y, Q96PU5”, the abundance fitness is reported as -0.099 ± 0.12.
“E3 ubiquitin-protein ligase NEDD4-like S225A, Q96PU5” showed an abundance fitness of -0.068 ± 0.073.
“E3 ubiquitin-protein ligase NEDD4-like S225C, Q96PU5” showed an abundance fitness of -0.29 ± 0.099.
Substance “E3 ubiquitin-protein ligase NEDD4-like S225D, Q96PU5” has an abundance fitness of -0.006 ± 0.065.
With “E3 ubiquitin-protein ligase NEDD4-like S225E, Q96PU5” the abundance fitness was 0.041 ± 0.081.
For “E3 ubiquitin-protein ligase NEDD4-like S225F, Q96PU5”, the abundance fitness was -0.267 ± 0.081.
With “E3 ubiquitin-protein ligase NEDD4-like S225G, Q96PU5” the abundance fitness was -0.072 ± 0.068.
In the case of “E3 ubiquitin-protein ligase NEDD4-like S225H, Q96PU5”, the abundance fitness is reported as -0.264 ± 0.14.
“E3 ubiquitin-protein ligase NEDD4-like S225I, Q96PU5” gave an abundance fitness of -0.038 ± 0.1.
For “E3 ubiquitin-protein ligase NEDD4-like S225K, Q96PU5”, the abundance fitness was 0.019 ± 0.095.
“E3 ubiquitin-protein ligase NEDD4-like S225L, Q96PU5” gave an abundance fitness of -0.095 ± 0.056.
Substance “E3 ubiquitin-protein ligase NEDD4-like S225M, Q96PU5” has an abundance fitness of -0.136 ± 0.092.
“E3 ubiquitin-protein ligase NEDD4-like S225P, Q96PU5” showed an abundance fitness of 0.018 ± 0.083.
“E3 ubiquitin-protein ligase NEDD4-like S225Q, Q96PU5” showed an abundance fitness of 0.048 ± 0.063.
Substance “E3 ubiquitin-protein ligase NEDD4-like S225R, Q96PU5” has an abundance fitness of -0.024 ± 0.064.
“E3 ubiquitin-protein ligase NEDD4-like S225T, Q96PU5” gave an abundance fitness of -0.066 ± 0.079.
With “E3 ubiquitin-protein ligase NEDD4-like S225V, Q96PU5” the abundance fitness was -0.018 ± 0.076.
In the case of “E3 ubiquitin-protein ligase NEDD4-like S225W, Q96PU5”, the abundance fitness is reported as -0.312 ± 0.068.
“E3 ubiquitin-protein ligase NEDD4-like S225Y, Q96PU5” gave an abundance fitness of -0.395 ± 0.12.
Substance “E3 ubiquitin-protein ligase NEDD4-like S230A, Q96PU5” has an abundance fitness of -0.024 ± 0.058.
“E3 ubiquitin-protein ligase NEDD4-like S230C, Q96PU5” gave an abundance fitness of -0.067 ± 0.066.
Substance “E3 ubiquitin-protein ligase NEDD4-like S230D, Q96PU5” has an abundance fitness of -0.023 ± 0.095.
“E3 ubiquitin-protein ligase NEDD4-like S230E, Q96PU5” showed an abundance fitness of -0.034 ± 0.066.
Work on “E3 ubiquitin-protein ligase NEDD4-like S230F, Q96PU5” yielded an abundance fitness of -0.139 ± 0.11.
“E3 ubiquitin-protein ligase NEDD4-like S230G, Q96PU5” showed an abundance fitness of -0.081 ± 0.054.
For “E3 ubiquitin-protein ligase NEDD4-like S230H, Q96PU5”, the abundance fitness was -0.002 ± 0.09.
With “E3 ubiquitin-protein ligase NEDD4-like S230I, Q96PU5” the abundance fitness was -0.274 ± 0.13.
With “E3 ubiquitin-protein ligase NEDD4-like S230K, Q96PU5” the abundance fitness was -0.186 ± 0.092.
Substance “E3 ubiquitin-protein ligase NEDD4-like S230L, Q96PU5” has an abundance fitness of -0.29 ± 0.071.
With “E3 ubiquitin-protein ligase NEDD4-like S230N, Q96PU5” the abundance fitness was 0.108 ± 0.071.
